Measurements as given in patent US20230129084A1, “COMPOSITE IMPLANTS” (Re-Vana Therapeutics Ltd., priority 2015, published 2023).
One block for each molecule: values may come before it.

Tests used:
rat eye = assay: In vivo implant formation of ISPcI in rat eye following intravitreal injection; details: day 1, day 6 and day 18
Description: 2 μl of ISPcI gel formulation was injected by intravitreal route in the rat eye, following by UV light exposure for 2 min, fundus images were collected to locate the implant formation and image model dye release within the eye. Likewise PPcI were administered by subconjunctival route and any surface inflammation monitored by experienced ophthalmologist

[1] = In vitro drug release from in situ photocrosslinked implants (ISPcI) in PBS
Description: (§1) For drug release studies selected ISPcI gel formulation were injected (approx. 0.2 g or 0.1 g) into desired amount of PBS (pH 7.3±0.2). Sink conditions were maintained for each drug type. ISPcI were formed by exposing them immediately to 365 nm using bench-top UV light (at 3.1±0.1 mW/cm^2, CAMAG, Muttenz, Switzerland) for varying periods of time in PBS. The implants were stored in an incubator (37° C. and 60 rpm) for the duration of the release study. At predetermined time intervals the entire PBS medium was removed and replaced with equal amount of fresh PBS. All the experiments were carried out in triplicates. The concentration of released drug molecule in the PBS samples was analyzed as described below.
BSA, OVA and bevacizumab (Avastin) were assayed using a Pierce™ Micro BCA protein assay kit (Thermo Scientific, Hampton, UK). To a microwell, 150 μL of BSA, OVA or BVZ standard or release sample was pipetted and 150 μL of working reagent was added. A plate shaker ensured thorough mixing. The 96-well plate was covered and incubated for 2 hours at 37° C. Once the plate was allowed to return to room temperature, a UV plate reader measured the absorbance at 562 nm. The average absorbance reading of the blank was subtracted from those of the standards/samples.

[2] = In vitro drug release from preformed photocrosslinked implants (PPcI) in PBS; format: physicochemical; details: PPcI 30% w/w PLGA 75/25 / PEGDA 700, 5 runs, lamp intensity 100%, after 266 days
Description: as §1
Analysis of DEX and TA samples were carried out using reversed-phase HPLC with UV detection (Agilent 1260 Infinity Quaternary System) using an Agilent Zorbax Eclipse Plus 250 mm C18 column (250 mm length, 4.6 mm internal diameter and 5 μm particle size) and an Agilent Zorbax guard column held at 25° C. […] Analysis required a mobile phase of 60% water and 40% acetonitrile with UV absorbance at 270 nm (for DEX) and 236 nm (for TA) at a flow rate of 1 ml/min and 0.8 ml/min respectively. Analysis of FITC-Dextran 150 kDa release was conducted using a fluorescence spectrophotometer. […] Fluorescence excitation occurred at 480 nm with emission measured at 520 nm. […]

[3] = ELISA test for bioactivity of OVA released from ISPcI; details: released from ISPcI at 37±2° C., after 1 and 3 months
Description: (Agilent Technologies UK Ltd, Stockport, UK). […] A plate shaker ensured thorough mixing.
Due to slow degradation rate of the crosslinked ISPcIs, the drastic drop in local pH is further delayed (unlike PLGA only implants) which is especially important and an advantage in protecting the sensitive molecules such as peptides and proteins. […] For example, an ELISA test was conducted to determine the bioactivity of released OVA from the ISPcI, at 37±2° C., after 1 and 3 months, respectively.

- release of fluorescein sodium from ISPcI implant in the eye (fundus images) (rat eye): slow and continuous release
Molecule: O=C1OC2(c3ccc(O)cc3Oc3cc(O)ccc32)c2ccccc21 [fluorescein sodium]

Molecule: Bevacizumab [BVZ]
- BVZ released ([1]; 30% PLGA ISPcI implants UV crosslinked for 30 sec): ~100%
- BVZ released ([1]; 30% PLGA ISPcI implants UV crosslinked for 2.5 min): approximately 41%

Molecule: Fluorescein isothiocyanate-dextran [FITC-Dextran 150 kDa]
- % release [2]: ~27%

B1: ovalbumin (protein, UniProt P01012 2-386, looked up)
Ovalbumin: GSIGAASMEFCFDVFKELKVHHANENIFYCPIAIMSALAMVYLGAKDSTRTQINKVVRFDKLPGFGDSIEAQCGTSVNVHSSLRDILNQITKPNDVYSFSLASRLYAEERYPILPEYLQCVKELYRGGLEPINFQTAADQARELINSWVESQTNGIIRNVLQPSSVDSQTAMVLVNAIVFKGLWEKAFKDEDTQAMPFRVTEQESKPVQMMYQIGLFRVASMASEKMKILELPFASGTMSMLVLLPDEVSGLEQLESIINFEKLTEWTSSNVMEERKIKVYLPRMKMEEKYNLTSVLMAMGITDVFSSSANLSGISSAESLKISQAVHAAHAEINEAGREVVGSAEAGVDAASVSEEFRADHPFLFCIKHIATNAVLFFGRCVSP
notes: model protein molecule, Mw of 45 kDa
- OVA remained active (bioactivity of released OVA by ELISA) [3]: ~97±2%
